In patent publication US20210340238A1, “TGFß1 INHIBITORS AND USE THEREOF” (Scholar Rock, Inc., priority 2018, published 2021):
Positions count from the first letter of the chain named.

B1: Ab19 (antibody, V domains shown)
VH: QVQLVESGGGVVQPGRSLRLSCAASGFTFSSFAMTWVRQAPGKGLEWVSAISGSGAATYFADSVKGRFTISRDNSKNTLYLQMNSLRAEDTAVYYCARVSSGHWDFDEWGQGTLVTVSS
VL: DIQLTQSPSSLSASVGDRVTITCRASQSISSYLNWYQQKPGKAPKLLIYAASNLQSGVPSRFSGSGSGTDFTLTISSLQPEDFATYYCQQTYTVPLTFGGGTKVEIK
B2: Ab20 (antibody, V domains shown)
VH: EVQLLESGGGLVQPGGSLRLSCAASGFTFSAYAMTWVRQAPGKGLEWVSAISGSGGVTYYADSVKGRFTISRDNSKNTLYLQMNSLRAEDTAVYYCARVSSGHWDYDYWGQGTLVTVSS
VL: B1 VL
B3: Ab11 (antibody, V domains shown)
VH: B2 VH with S30R, A31N, T35S, A50S, V57A, Y106F
VL: B1 VL
B4: Ab12 (antibody, V domains shown)
VH: B1 VH with S31D, F32Y, T35V, A56F, A57T, F60Y, E108Y
VL: B1 VL
B5: Ab13 (antibody, IgG1, V domains shown)
VH: B2 VH with S30A, A31D, G53S, S54F, G55A, G56S, V57A, T58I, Y106F
VL: B1 VL with L4M, N53S, T91V, T93D, V94P
B6: Ab14 (antibody, IgG1, V domains shown)
VH: B2 VH with S54T, V57S, Y106F
VL: B1 VL with L4M, N53S, T91V, T93D, V94P
B7: Ab15 (antibody, IgG1, V domains shown)
VH: B2 VH with L5V, L11V, G16R, A31D, T35V, G56F, V57T, Y106F
VL: B1 VL
B8: Ab16 (antibody, IgG1, V domains shown)
VH: B2 VH with A31N, T35S, G56F, V57T, Y106F
VL: B1 VL
B9: Ab17 (antibody, IgG1, V domains shown)
VH: B1 VH with Q1E, V5L, R16G, E108Y
VL: B1 VL
B10: Ab18 (antibody, IgG1, V domains shown)
VH: B1 VH with S31D, F32Y, T35V, R98T, E108Y
VL: B1 VL
B11: Ab2 (antibody, V domains shown)
VH: B2 VH with S30A, A31D, G56A, V57A, Y60F, Y106F
VL: B1 VL

molecular target: Matrix-associated proTGFβ1 (hLTBP1-proTGFβ1 and hLTBP3-proTGFβ1 complexes); test: MSD-SET; cell average KD over ECM average KD

Binder | G/D (fold bias) [fold]
B1 | 1.68
B2 | 6.75
B3 | 3.87
B4 | 3.4

molecular target: Matrix-associated proTGFβ1 (hLTBP1-proTGFβ1 and hLTBP3-proTGFβ1 complexes); test: Octet (BLI); cell average KD over ECM average KD

Binder | G/D (fold bias) [fold]
B1 | 34.5
B2 | 4.42
B3 | 4.35
B4 | 22.9
B5 | 21.7
B6 | 17.4
B7 | 24.2
B8 | 15.3
B9 | 24.3
B10 | 22

molecular target: Cell-associated proTGFβ1 (hGARP-proTGFβ1 and hLRRC33-proTGFβ1 complexes); test: Octet (BLI); IgG1 from yeast; mean of hGARP and hLRRC33

Binder | Cell AVRG (average KD) [nM]
B1 | 5.95
B2 | 0.715
B3 | 0.699
B4 | 3.89
B11 | 0.643
B5 | 5.7
B6 | 5.92
B7 | 3.86
B8 | 2.4
B9 | 4.64
B10 | 6.26

molecular target: Matrix-associated proTGFβ1 (hLTBP1-proTGFβ1 and hLTBP3-proTGFβ1 complexes); test: Octet (BLI); IgG1 from yeast; mean of hLTBP1 and hLTBP3

Binder | ECM AVRG (average KD) [nM]
B1 | 0.172
B2 | 0.162
B3 | 0.161
B4 | 0.17
B11 | 0.157
B5 | 0.263
B6 | 0.341
B7 | 0.159
B8 | 0.157
B9 | 0.191
B10 | 0.284

molecular target: Matrix-associated proTGFβ1 (hLTBP1-proTGFβ1 and hLTBP3-proTGFβ1 complexes); test: MSD-SET; IgG4 from mammalian cells; mean of hLTBP1 and hLTBP3

Binder | ECM AVRG (average KD) [nM]
B1 | 2.83
B2 | 0.2
B3 | 1.2
B4 | 0.72
B11 | 0.266

molecular target: Cell-associated proTGFβ1 (hGARP-proTGFβ1 and hLRRC33-proTGFβ1 complexes); test: MSD-SET; IgG4 from mammalian cells; mean of hGARP and hLRRC33

Binder | Cell AVRG (average KD) [nM]
B1 | 4.75
B2 | 1.35
B3 | 4.65
B4 | 2.45
B11 | 2.3
